Series [1] has as its target Ire1KR32 (wild type) (yeast).
Series [2] addresses T1, Ire1KR32 (Saccharomyces cerevisiae? ("yeast"), UniProt P32361 641-1115).
T1 sequence: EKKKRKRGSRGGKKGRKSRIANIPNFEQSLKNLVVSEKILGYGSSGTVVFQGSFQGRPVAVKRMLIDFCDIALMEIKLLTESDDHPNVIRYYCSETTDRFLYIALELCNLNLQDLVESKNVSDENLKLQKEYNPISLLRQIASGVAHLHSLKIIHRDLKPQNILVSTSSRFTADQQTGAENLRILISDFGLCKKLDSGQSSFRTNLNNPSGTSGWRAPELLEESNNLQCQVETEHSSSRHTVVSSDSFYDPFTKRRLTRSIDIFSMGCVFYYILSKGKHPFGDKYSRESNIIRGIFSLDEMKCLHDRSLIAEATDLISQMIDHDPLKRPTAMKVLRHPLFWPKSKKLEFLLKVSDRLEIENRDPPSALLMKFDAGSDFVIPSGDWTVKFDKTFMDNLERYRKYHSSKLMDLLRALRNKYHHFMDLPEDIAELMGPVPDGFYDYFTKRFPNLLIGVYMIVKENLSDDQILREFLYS
Briefly: competition (inhibition of 32P-HP21 cleavage); apparent Ki; 2 mM Mg2+, 2 mM ADP, 3 uM Ire1KR32; 20 mM HEPES pH 7.4, 70 mM NaCl, 5% glycerol, 2 mM Mg(CH3COO)2, 2 mM ADP, 4 mM DTT, 30 C. Conditions: protein: recombinant; tags: GST removed with Prescission protease; label: none; single strand.

We go through two molecules from paper PMC3149027, “Structural and functional basis for RNA cleavage by Ire1”.

Ire1KR32(H1061N) (domain or fragment) returned an RNase activity (single-turnover cleavage of 32P-HP21) of 1.5 μM wild-type Ire1KR32 titrated with 0.1-15 μM Ire1KR32(H1061N); in trans activation, inhibition at excessive H1061N in series [1] of 10 fold.

B1: dCdCdGdCdAdG (2'-deoxy-CCGCAG) (ssDNA)
DNA: CCGCAG
modifications: 2'-deoxy throughout
For B1, the Ki in series [2] is 200 ± 50 µM.
